Numbering of substitutions follows the chain as printed. Values belong to the binder of their own block, whether it stands above or below them.
Tests used:
Test in all cases: flow cytometry on transfected 293T cells, PE secondary antibody, geo mean
[1] = molecular target: T1, human CCR7 variant M208L (20100171271) (human, UniProt P32248 25-378)
T1 sequence: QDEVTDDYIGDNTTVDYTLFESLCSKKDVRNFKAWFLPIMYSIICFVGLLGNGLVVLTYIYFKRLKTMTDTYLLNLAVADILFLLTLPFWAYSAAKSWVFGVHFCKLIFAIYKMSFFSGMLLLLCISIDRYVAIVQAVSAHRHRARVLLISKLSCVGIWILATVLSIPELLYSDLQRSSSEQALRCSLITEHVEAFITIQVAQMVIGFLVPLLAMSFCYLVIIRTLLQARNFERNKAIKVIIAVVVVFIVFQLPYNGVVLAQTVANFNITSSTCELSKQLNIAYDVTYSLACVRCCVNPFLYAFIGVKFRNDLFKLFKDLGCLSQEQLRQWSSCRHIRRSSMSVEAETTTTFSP

[2] = molecular target: T2, human CCR7 variant R201K (20100171268) (human, UniProt P32248 25-378)
T2 sequence: T1 sequence with R177K, L184M

[3] = molecular target: T3, human CCR7 variant V123I (20100126473) (human, UniProt P32248 25-378)
T3 sequence: T1 sequence with V99I, L184M

[4] = molecular target: T4, murine CCR7 K201R/N202S/G204S/T207A/L208M construct 20110094673 (mouse, UniProt P47774 25-378)
T4 construct: Murine CCR7 with five human ECL2 residues; also called KNGTL; KNGTL construct
T4 chain: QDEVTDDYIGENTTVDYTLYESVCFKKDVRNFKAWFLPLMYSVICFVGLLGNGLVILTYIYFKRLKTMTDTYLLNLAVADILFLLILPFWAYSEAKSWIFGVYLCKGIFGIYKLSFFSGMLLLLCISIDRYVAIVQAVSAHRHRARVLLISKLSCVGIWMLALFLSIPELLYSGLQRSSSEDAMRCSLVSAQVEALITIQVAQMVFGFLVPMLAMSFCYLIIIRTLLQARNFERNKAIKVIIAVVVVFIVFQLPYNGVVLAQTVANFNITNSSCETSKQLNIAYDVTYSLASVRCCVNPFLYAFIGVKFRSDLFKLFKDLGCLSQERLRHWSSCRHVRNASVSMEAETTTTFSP

[5] = molecular target: T5, human CCR7 variant T297S (20110018203) (human, UniProt P32248 25-378)
T5 sequence: T1 sequence with L184M, T273S

[6] = molecular target: T6, human CCR7 variant A207T (20100171270) (human, UniProt P32248 25-378)
T6 sequence: T1 sequence with A183T, L184M

[7] = molecular target: T7, human CCR7 variant D35E (20100122625) (human, UniProt P32248 25-378)
T7 construct: Human CCR7 with the murine residue at position 35; also called D35 variant
T7 sequence: T1 sequence with D11E, L184M

binding result [1]: binds
binding result [2]: binds
binding result [3]: binds
binding result [4]: binds
binding result [5]: binds
binding result [6]: binds
binding result [7]: binds
B1: antibody 6B4.1 (antibody, V domains shown)
VH: QVQLVESGGGVVQPGRSLRLSCAASGFTFSSYGMHWVRQAPGKGLEWVAVIWYDGSKKYYADSVKGRFTISRDNSKNTLYLQMNRLRAEDTAVYYCARDGGIAVFLQDNWFDPWGQGTLVTVSS
VL: SYELTQPPSVSVSPGQRARITCSGDKLGDKYASWYQQKPGQSPLLVIYQDSKRPSGIPERFSGSNSGNTATLTISGTQAMDEADYYCQAWGSSTVIFGGGTKLTVLG
notes: Human antibody from XenoMouse hybridoma; Light = 2 and heavy = 42 is inferred from the order of the listing (light chains first)

binding result [1]: binds
binding result [2]: binds
binding result [3]: binds
binding result [4]: binds
binding result [5]: binds
binding result [6]: binds
binding result [7]: binds
B2: antibody 6B5.1 (antibody, human IgG2, lambda, V domains shown)
VH: B1 VH with S30R, Q107E
VL: B1 VL with R19S, S51G
notes: Human antibody from XenoMouse hybridoma; Light = 18 and heavy = 50 is inferred from the order of the listing

From US20170342155A1 (Amgen, published 2017)
